Experimental data published in PMC9428403.
Several values for one entry are separate records, joined by “and”; a condition that tells them apart may be missing. Equal entries are not always repeated.

Tests used:
[1] = molecular target: PKM2 (endogenous, RAW264.7 macrophages) (mouse (endogenous in RAW264.7)) (UniProt P52480); experiment: cross-linking; RAW264.7 cells pre-treated 1 h with Shikonin (0.5, 1, 2 μM) or not, challenged with LPS (250 ng/ml) + IFN-γ (100 ng/ml) for 24 h; cells cross-linked with disuccinimidyl suberate (500 nM as printed) 30 min at room temperature, quenched with Tris-HCl pH 7.5; lysates analysed by western blot for PKM2
[2] = molecular target: mouse PKM2 (AA 1-531), recombinant (mouse) (UniProt P52480); experiment: SEC; Superdex 200 increase 10/300 GL, 150 mM NaCl, 20 mM Tris-HCl; purified PKM2 incubated with or without Shikonin; dimer and tetramer mixture eluted at 13 ml

Chain of mouse PKM2 (AA 1-531), recombinant, P52480 1-531 (enzyme; other documents disagree on this pair) (P52480 whole entry, the tested form may be a part): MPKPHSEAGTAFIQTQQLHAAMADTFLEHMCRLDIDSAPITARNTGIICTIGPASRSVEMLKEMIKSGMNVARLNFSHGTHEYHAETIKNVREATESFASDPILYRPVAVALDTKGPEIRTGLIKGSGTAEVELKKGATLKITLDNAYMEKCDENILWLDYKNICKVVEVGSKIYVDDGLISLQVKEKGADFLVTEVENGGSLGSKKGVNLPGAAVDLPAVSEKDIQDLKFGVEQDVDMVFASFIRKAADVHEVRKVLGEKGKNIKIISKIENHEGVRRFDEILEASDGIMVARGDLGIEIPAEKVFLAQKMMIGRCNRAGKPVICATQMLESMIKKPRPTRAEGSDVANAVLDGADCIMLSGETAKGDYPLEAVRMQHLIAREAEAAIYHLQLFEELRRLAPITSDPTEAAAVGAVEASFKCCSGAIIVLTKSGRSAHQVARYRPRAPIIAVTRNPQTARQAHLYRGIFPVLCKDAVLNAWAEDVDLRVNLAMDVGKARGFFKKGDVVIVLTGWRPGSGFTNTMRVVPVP
Chain of PKM2 (endogenous, RAW264.7 macrophages), P52480 1-531 (enzyme; other documents disagree on this pair) (P52480 whole entry): as the sequence (P52480 whole entry, the tested form may be a part) above

“PKM2 (endogenous, RAW264.7 macrophages), P52480 1-531 (enzyme; other documents disagree on this pair)” was tested, and the stoichiometry N [1] was 4 and 2.

For “mouse PKM2 (AA 1-531), recombinant, P52480 1-531 (enzyme; other documents disagree on this pair)”, the stoichiometry N [2] was 2 and 4.
